This note sets out measurements from paper PMC3170469.

Experiment [1] deals with hydrogen peroxide treated recombinant human interferon beta-1a (human) (UniProt P01574). Nature of the experiment: SEC. A general note: SEC sorts molecules by how far they enter the pores of the column.
In experiment [2] the target is metal-catalyzed oxidized recombinant human interferon beta-1a (human) (UniProt P01574). Nature of the experiment: SEC.

On to “hydrogen peroxide treated recombinant human interferon beta-1a (from UniProt P01574 22-187) (natural protein)”, for which the oligomer fraction (%) in experiment [1] was determined as 7%.

As for “metal-catalyzed oxidized recombinant human interferon beta-1a (from UniProt P01574 22-187) (natural protein)”, the oligomer fraction (%) in experiment [2] came out at 68%.
